Laboratory results: patent US20090053740A1, “AGGLUTINATION-BASED METHOD FOR FAST DETECTION, ISOLATION AND QUANTIFICATION OF APOPTOTIC CELLS” (CEDARS-SINAI MEDICAL CENTER, priority 2005, published 2009)
Read-outs that look alike come from different tables or passages of the source.

How the values were obtained:
apoptotic cells = test: Effect of glycoprotein synthesis/traffic inhibitors on glycoprotein expression in apoptotic cells; type: cell-based
L1210 cells = type: binding, murine
[1] = test system: murine leukemia L1210 cells; test: Effect of cisplatin concentration on quantity of live cells
Method: Apoptosis of L1210 cells was induced by cisplatin (0.5 and 0.1 μg/ml, or 5.0 μg/ml, Ebewe, Austria) (56,57); apoptosis of L929 cells was induced by hyperthermia 43° C. […] Cell viability was controlled by trypan-blue (0.1% w/v solution) exclusion test, and cells were counted in hemocytometric chamber under light microscope.

[2] = test system: human leukemia Jurkat cells; test: Lectinocytochemical analysis with HRP-labeled lectins; type: binding
Method: (§1) Lectin cytochemical analysis was conducted as described previously by Herrington & Mc Gee (Herrington C S, McGee JO'D. Diagnostic molecular pathology. Oxford: IRL Press; 1992), with some modifications. Cell smears were fixed in a mixture of acetone, methanol, and formalin (19:19:2) for 90 s at room temperature and then air dried. Smears were washed twice with Tris saline buffer (TSB) for 2 min and incubated with HRP-labeled lectins (50 μg/ml) for 1 h at room temperature or overnight at 4° C. If necessary, the appropriate sugar inhibitor (0.1 M solution) was added to the incubation mixture. Smears were washed twice with TSB for 10 min and incubated with 0.5 mg/ml of 3,3′-diaminobenzidin (Sigma Chemical Co.) and 4 μl/ml of H2O2 in TSB for 5 min. In some experiments a NiCl2 solution was added to the incubation mixture (final concentration, 1 mg/ml) to improve cell contrast.
(§2) Alternatively, smears were washed in distilled water, air dried and photographed. Densitometric analysis was performed on an AMD-based IBM PC computer using ImageJ (Wayne Rasband, National Institutes of Health, USA) program support and the UTHSCSA ImageTool program (University of Texas Health Science Center in San Antonio, Tex.).

[3] = test system: human adenocarcinoma cells of MCF-7 line; test: as above; type: binding
Method: as §1, §2

[4] = test system: murine fibroblasts of L929 line; test: as above; type: binding
[5] = test system: murine leukemia L1210 cells; type: cell-based
Method: Mixtures were resuspended once and 10 μl were transferred on slide glass, and examined under microscope.
Mannose-specific PMRL and PSL lectins caused agglutination of normal cells in concentrations of 625 and 1000 μg/ml, respectively and agglutination of apoptotic cells in concentrations of 78 and 125 μg/ml, respectively (FIG. 11). Thus, lectin concentration needed for agglutination of apoptotic cells was approximately equal to and/or equal to ⅛ (625 against 78 and 1000 against 125) of that needed to agglutinate the non-apoptotic cells. It is believed that there is an 8-fold increase in mannose-containing glycoconjugate expression in the apoptotic cells comparing to intact cells. Similar results were obtained for galactose-specific lectins.

[6] = test system: L929, L1210, MCF-7 (wt), MCF-7 (DOX/R), and Jurkat cell lines; test: Lectinocytochemical analysis, summary over the studied cell lines; type: binding
[7] = test system: human lung carcinoma A549 cells; test: Fluorescent microscopy with fluorescent lectin conjugate; type: binding

## tunicamycin
Apoptotic cells
  effect on the increase in expression of α-D-mannose- and β-D-galactose-containing glycoprotein(s) in apoptotic cells: did not diminish

## OC[C@H]1O[C@H](O[C@H]2[C@H](O)[C@@H](O)C(O)O[C@@H]2CO)[C@H](O)[C@@H](O)[C@H]1O (stereo partly drawn) [lactose, 4-O-(α-D-galactopyranosyl)-D-glucopyranose, reference compound]
L1210 cells; α-MMan for PSL, lactose for RCA-120
  inhibition of lectin binding by specific sugar inhibitor: substantial

## CC[C@@]1([C@@H]2O[C@@H]([C@H]3O[C@@](O)(CO)[C@H](C)C[C@@H]3C)C[C@@H]2C)CC[C@H]([C@]2(C)CC[C@]3(C[C@H](O)[C@@H](C)[C@@H]([C@@H](C)[C@@H](OC)[C@H](C)C(=O)O)O3)O2)O1 [monensine]
Apoptotic cells
  effect on the increase in expression of α-D-mannose- and β-D-galactose-containing glycoprotein(s) in apoptotic cells: did not diminish

## CO[C@H]1O[C@H](CO)[C@@H](O)[C@H](O)[C@@H]1O [α-MMan, α-Methyl-D-mannopyranoside, reference compound]
L1210 cells
  inhibition of lectin binding by specific sugar inhibitor: almost absolute abolishment

## O=CC[C@@H](O)[C@H](O)[C@H](O)CO [2-deoxy-D-glucose]
Apoptotic cells
  effect on the increase in expression of α-D-mannose- and β-D-galactose-containing glycoprotein(s) in apoptotic cells: did not diminish

## N.N.[Cl][Pt][Cl] [cisplatin, cis-diamminodichloroplatinum]
[1]
  effect of increasing concentration on live cell number: decrease in live cell number

B1: PSL: Pisum sativum lectin, α-D-mannose-specific (protein, UniProt P02867 31-217; P02867 218-275, looked up)
Lectin beta chain: TETTSFLITKFSPDQQNLIFQGDGYTTKEKLTLTKAVKNTVGRALYSSPIHIWDRETGNVANFVTSFTFVINAPNSYNVADGFTFFIAPVDTKPQTGGGYLGVFNSAEYDKTTQTVAVEFDTFYNAAWDPSNRDRHIGIDVNSIKSVNTKSWKLQNGEEANVVIAFNAATNVLTVSLTYPNSLEEEN
Lectin alpha chain: VTSYTLSDVVSLKDVVPEWVRIGFSATTGAEYAAHEVLSWSFHSELSGTSSSKQAADA
[2]
  lectin binding, apoptotic vs non-apoptotic cells: stronger
[3]
  lectin binding, apoptotic vs non-apoptotic cells: increase in binding
  lectin binding, apoptotic vs normal cells: statistically insignificant
[4]; L929
  lectin binding, apoptotic vs normal cells: significantly stronger binding
[4]; L929, etoposide 10 μM, 72 h
  staining, apoptotic vs non-apoptotic cells: more intensive staining
[4]; L929, hyperthermia 43° C., 3h, detached by rubbing
  lectin binding, apoptotic vs non-apoptotic cells: increased binding
[4]; L929, hyperthermia, trypsinization
  lectin binding, apoptotic vs intact cells: significantly stronger
[5]; L1210 cells
  lectin concentration needed for agglutination of apoptotic cells as fraction of that needed for non-apoptotic cells: ⅛
[5]; apoptotic L1210 cells
  minimal lectin concentration needed to induce noticeable agglutination: 125 µg/mL
[5]; normal L1210 cells
  minimal lectin concentration needed to induce noticeable agglutination: 1000 µg/mL
[6]
  lectin binding with apoptotic cells compared to non-apoptotic cells: increased bidding
L1210 cells
  binding by apoptotic cells compared with normal cells: much better bound
  lectin binding of cells pretreated 2 h with non-labeled lectin vs untreated, stained with corresponding HRP-labeled lectin: decrease

B2: FITC-PSL: FITC-labeled PSL lectin conjugate (conjugate, UniProt P02867 31-217; P02867 218-275, looked up)
Lectin beta chain: TETTSFLITKFSPDQQNLIFQGDGYTTKEKLTLTKAVKNTVGRALYSSPIHIWDRETGNVANFVTSFTFVINAPNSYNVADGFTFFIAPVDTKPQTGGGYLGVFNSAEYDKTTQTVAVEFDTFYNAAWDPSNRDRHIGIDVNSIKSVNTKSWKLQNGEEANVVIAFNAATNVLTVSLTYPNSLEEEN
Lectin alpha chain: VTSYTLSDVVSLKDVVPEWVRIGFSATTGAEYAAHEVLSWSFHSELSGTSSSKQAADA
modifications: FITC label
notes: FITC-labeled PSL lectin conjugate
[7]; A549, 5 μg/ml cisplatin 24 hours, apoptosis in almost all cells (FIG. 18 lower row)
  binding of labeled lectin compared to untreated cells or cells with onset of apoptosis: significantly higher
[7]; A549, 5 μg/ml cisplatin 24 hours, beginning of apoptotic cell death (FIG. 18 middle row)
  binding of labeled lectin compared to untreated cells: significantly stronger
[7]; untreated A549 cells
  binding of labeled lectin: did not bind
